Results reported in PMC8137598.

Biological target: full-length A82F variant of CYP102A1 with an N-terminal His6 tag (Bacillus megaterium) (UniProt P14779)
Test: SEC-MALS

stoichiometry N: 2
Substance: full-length A82F variant of CYP102A1 with an N-terminal His6 tag (from UniProt P14779 1-1049) (enzyme)
